The source of these data is publication PMC3940844.

In assay [1] the target is FH-p53 (FLAG- and oligohistidine-tagged human p53) (human) (UniProt P04637). The assay can be described thus: pull-down; competitive GST pull-down: FH-TLP or FH-TBP co-applied with FH-p53 to beads with GST-TBP or GST-TLP; recovered p53 by band intensity.
Assay [2] addresses GST-TBP (glutathione S-transferase-tagged human TATA-binding protein) (human) (UniProt P20226). The assay can be described thus: pull-down; GST pull-down with increasing amounts of protein (p53 by the text, GST proteins by the legend); ratio of bound p53 to input by band intensity.

Chain of GST-TBP (glutathione S-transferase-tagged human TATA-binding protein) (human) (P20226 whole entry): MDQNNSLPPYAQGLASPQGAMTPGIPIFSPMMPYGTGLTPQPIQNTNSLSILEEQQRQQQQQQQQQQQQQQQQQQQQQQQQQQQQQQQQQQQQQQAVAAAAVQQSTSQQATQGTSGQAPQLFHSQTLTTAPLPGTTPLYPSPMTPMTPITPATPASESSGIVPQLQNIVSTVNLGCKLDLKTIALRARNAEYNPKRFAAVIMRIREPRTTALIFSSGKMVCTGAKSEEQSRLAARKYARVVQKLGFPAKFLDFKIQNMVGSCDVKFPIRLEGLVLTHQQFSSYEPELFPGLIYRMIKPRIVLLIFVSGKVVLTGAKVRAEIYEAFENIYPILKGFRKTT

Turning to “FH-TBP (purified competitor in the pull-down) (from UniProt P20226 1-339) (natural protein)”, in assay [1], the p53 recovered on GST-TLP with FH-TBP as competitor, percent of the control experiment was 6%. For “FH-p53 (FLAG- and oligohistidine-tagged human p53) (from UniProt P04637 1-393) (natural protein)”, in assay [2], the ratio of bound p53 to input at the plateau amounted to 0.5.
